Data on three proteins can be found in paper PMC6360533 (Neuron, 2018).

Series [1] deals with the molecule itself. Description: SEC-MALS.
Series [2] concerns the molecule itself. Description: SEC. A general note: In gel filtration, larger molecules generally elute earlier.
Series [3] deals with the molecule itself. The experiment in a line: native gel or EMSA. A general note: A gel shift assay detects complexes by their altered migration in electrophoresis.

B1: purified mouse TMC1 (mmTMC1) reconstituted into amphipols (natural protein, UniProt Q8R4P5 1-757, looked up)
chain: MLQIQVEEKEEDTEESSSEEEEDKLPRRESLRPKRKRTRDVINEDDPEPEPEDEETRKAREKERRRRLRRGAEEEEEIDEEELERLKALLDENRQMIATVKCKPWKMEKKIEVLKEAKKFVSENEGALGKGKGKKWFAFKMMMAKKWAKFLRDFENFKAACVPWENKIKAIESQFGSSVASYFLFLRWMYGVNMVLFVLTFSLIMLPEYLWGLPYGSLPRKTVPRAEEASAANFGVLYDFNGLAQYSVLFYGYYDNKRTIGWLNFRLPLSYFLVGIMCIGYSFLVVLKAMTKNIGDDGGGDDNTFNFSWKVFCSWDYLIGNPETADNKFNSITMNFKEAIIEERAAQVEENIHLIRFLRFLANFFVFLTLGASGYLIFWAVKRSQEFAQQDPDTLGWWEKNEMNMVMSLLGMFCPTLFDLFAELEDYHPLIALKWLLGRIFALLLGNLYVFILALMDEINNKIEEEKLVKANITLWEANMIKAYNESLSGLSGNTTGAPFFVHPADVPRGPCWETMVGQEFVRLTVSDVLTTYVTILIGDFLRACFVRFCNYCWCWDLEYGYPSYTEFDISGNVLALIFNQGMIWMGSFFAPSLPGINILRLHTSMYFQCWAVMCCNVPEARVFKASRSNNFYLGMLLLILFLSTMPVLYMIVSLPPSFDCGPFSGKNRMFEVIGETLEHDFPSWMAKILRQLSNPGLVIAVILVMVLTIYYLNATAKGQKAANLDLKKKMKQQALENKMRNKKMAAARAAAAAGGQ
What is called stoichiometry N is the number of molecules, sites or subunits per partner or assembly. Take B1: in series [1], the “stoichiometry N” value came to 2.

B2: human TMC1 (hsTMC1) fused to GFP (natural protein, UniProt Q8TDI8 1-760, looked up)
chain: MSPKKVQIKVEEKEDETEESSSEEEEEVEDKLPRRESLRPKRKRTRDVINEDDPEPEPEDEETRKAREKERRRRLKRGAEEEEIDEEELERLKAELDEKRQIIATVKCKPWKMEKKIEVLKEAKKFVSENEGALGKGKGKRWFAFKMMMAKKWAKFLRDFENFKAACVPWENKIKAIESQFGSSVASYFLFLRWMYGVNMVLFILTFSLIMLPEYLWGLPYGSLPRKTVPRAEEASAANFGVLYDFNGLAQYSVLFYGYYDNKRTIGWMNFRLPLSYFLVGIMCIGYSFLVVLKAMTKNIGDDGGGDDNTFNFSWKVFTSWDYLIGNPETADNKFNSITMNFKEAITEEKAAQVEENVHLIRFLRFLANFFVFLTLGGSGYLIFWAVKRSQEFAQQDPDTLGWWEKNEMNMVMSLLGMFCPTLFDLFAELEDYHPLIALKWLLGRIFALLLGNLYVFILALMDEINNKIEEEKLVKANITLWEANMIKAYNASFSENSTGPPFFVHPADVPRGPCWETMVGQEFVRLTVSDVLTTYVTILIGDFLRACFVRFCNYCWCWDLEYGYPSYTEFDISGNVLALIFNQGMIWMGSFFAPSLPGINILRLHTSMYFQCWAVMCCNVPEARVFKASRSNNFYLGMLLLILFLSTMPVLYMIVSLPPSFDCGPFSGKNRMFEVIGETLEHDFPSWMAKILRQLSNPGLVIAVILVMVLAIYYLNATAKGQKAANLDLKKKMKMQALENKMRNKKMAAARAAAAAGRQ
As for B2, the “stoichiometry N” value in series [2] came to 2.

B3: purified human TMC1 (hsTMC1) reconstituted into amphipols (natural protein, UniProt Q8TDI8 1-760, looked up)
chain: B2 chain
As to B3, the “stoichiometry N” value in series [3] worked out at 2.
